Laboratory results taken from patent US6518412B1, “Gene therapy approaches to supply apolipoprotein A-I agonists and their use to treat dyslipidemic disorders” (priority 1997, dated 2003).

Assays:
Assay type in all cases: physicochemical
[1] = Circular dichroism, degree of helicity (free, SUVs, micelles, TFE)
Description: Far UV circular dichroism spectra were recorded between 190 and 260 nm (in 0.5 nm or 0.2 nm increments) with a AVIV62DS spectrometer (AVIV Associates, Lakewood, N.J., USA) equipped with a thermoelectric cell holder and sample changer. The instrument was calibrated with (+)-10-[…]. Between one and three scans were collected for each sample, using 10 cm, 5 cm, 1 cm and 0.1 cm path length quartz Suprasil cells, respectively, for peptide concentrations of 10^−7 M to 10^−4 M. The bandwidth was fixed at 1.5 nm and the scan speed to is per wavelength step. The reported data are the mean of at least 2 or 3 independent measurements.
After background substraction, spectra were converted to molar ellipticity (θ) per residue in deg. […] dmol^−1. The peptide concentration was determined by amino acid analysis and also by absorption spectrometry on a Perkin Elmer Lambda 17 UV/Visible spectrophotometer when the peptide contained a chromophore (tryptophane, dansyl, naphtylalanine). […]
All spectra were recorded at 37° C. The stability of peptide 210 (SEQ ID NO:210) as a function of temperature (both free in buffer and in micelles) was determined by recording spectra at a series of different temperatures.
The degree of helicity of peptide 210 (SEQ ID NO:210) as a function of concentration was also determined.
The degree of helicity of the peptides in the various conditions was determined from the mean residue ellipticity at 222 nm (Chen et al., 1974, Biochemistry 13:3350-3359) or by comparing the CD spectra obtained to reference spectra available on databases (16 helical reference spectra from Provencher & Glockner, 1981, Biochemistry 20:33-37; denatured protein reference spectra from Venyaminov et al., 1993, Anal. Biochem. 214:17-24) using the CONTIN curve-fitting algorithm version 2DP, CD-1 pack (August 1982) (Provencher, 1982, Comput. Phys. Commun. 27:213-227, 229-242). Acceptable fit was determined using the statistical analysis methodology provided by the CONTIN algorithm. […]

[2] = NMR analysis of peptide structure; conditions: 25% TFE at 295 K
Description: Samples were prepared by dissolving 5 mg of peptide in 90% H2O/10% D2O containing trace amounts of 2,2-Dimethyl-2-sila-5-pentane sulfonate (DSS) as an internal chemical shift reference. Some of the samples contained trifluoroethanol (TFE) (expressed as % vol). The total sample volume was 500 μl and the concentration of peptide was approximately 5 mM.
^1H NMR spectra were acquired at 500 MHz using a Bruker DRX500 spectrometer equipped with a B-VT2000 temperature control unit. One and two-dimensional experiments were recorded using standard pulse sequences. (Two Dimensional NMR Spectroscopy, Eds. W. R. Croasmun and RMK Carlson, 1994, VCH Publishers, New York, USA). […] Two-dimensional experiments were carried out in the phase sensitive mode using time proportional phase incrementation (TPPI) and a spectral width of 6000 Hz in both dimensions. Typically, 40 scans were co-added for 400 t1 increments with 2048 data points. […]
Complete proton resonance assignments were obtained by applying the sequential assignment technique using DQFCOSY, TOCSY and NOESY spectra as described in the literature (Wuthrich, NMR of Proteins and Nucleic Acids, 1986, John Wiley & Sons, New York, USA). Secondary chemical shifts were calculated for HN and Ha protons by subtracting the tabulated random coil chemical shifts (Wishart and Sykes, 1994, Method. Enz. 239:363-392) from the corresponding experimental values.

[3] = Superose 6 gel filtration chromatography of peptide-lipid complexes; conditions: 1 mg peptide and 3 mgs DPPC, colyophilized, 0.9% NaCl
Description: One mg of peptide 149 ([…]; SEQ ID NO:149) was dissolved in 250 μl HPLC grade methanol (Perkin Elmer) in a one ml clear glass vial with cap (Waters #WAT025054). Dissolving of the peptide was aided by occasional vortexing over a period of 10 minutes at room temperature. To this mixture an aliquot containing 3 mg dipalmitoyl-phosphatidyl-choline (DPPC; Avanti Polar Lipids, 99% Purity, product #850355) from a 100 mg/ml stock solution in methanol was added. The volume of the mixture was brought to 400 μl by addition of methanol, and the mixture was further vortexed intermittently for a period of 10 minutes at room temperature. To the tube 200 μl of xylene (Sigma-Aldrich 99% pure, HPLC-grade) was added and the tubes were vortexed for 10 seconds. […]
Peptide-phospholipid complexes containing peptide 149 (SEQ ID NO:149) were prepared by colyophilization as described above. […] The chromatography was monitored by absorbance or scattering of light of wavelength 280 nm. […] The vast majority of both phospholipid and UV absorbance were recovered together in a few fractions with peaks at approximately 15.8 mls. […]
For comparison, a separate chromatogram of 20 μl of human HDL2 was run under the same conditions and using the same column as the peptide 149 complexes. […] The column eluate was monitored by absorbance or scattering of light of wavelength 254 nm. […]

| Sequence | stability of α-helical structure with temperature [1] | helicity in the presence of TFE ([1]; TFE) | helicity ([1]; in micelles) | conformation from Hα secondary shifts [2] | Stokes' diameter [3] |
| --- | --- | --- | --- | --- | --- |
| PVLDLFRELLEELKQKLK [peptide 210] | completely stable | increases | 63% | highly helical conformation |  |
| PVLELFENLWERLLDALQKKLK [peptide 149] |  |  |  |  | 87 Angstroms |
